Source: IntAct's records for PubMed 27309818

B1: Izumo sperm-egg fusion protein 1 (Homo sapiens), Q8IYV9-1 (parent)
chain: MGPHFTLLCAALAGCLLPAEGCVICDPSVVLALKSLEKDYLPGHLDAKHHKAMMERVENAVKDFQELSLNEDAYMGVVDEATLQKGSWSLLKDLKRITDSDVKGDLFVKELFWMLHLQKETFATYVARFQKEAYCPNKCGVMLQTLIWCKNCKKEVHACRKSYDCGERNVEVPQMEDMILDCELNWHQASEGLTDYSFYRVWGNNTETLVSKGKEATLTKPMVGPEDAGSYRCELGSVNSSPATIINFHVTVLPKMIKEEKPSPNIVTPGEATTESSISLQPLQPEKMLASRLLGLLICGSLALITGLTFAIFRRRKVIDFIKSSLFGLGSGAAEQTQVPKEKATDSRQQ
B2: Sperm-egg fusion protein Juno (Homo sapiens), A6ND01-1 (parent)
chain: MACWWPLLLELWTVMPTWAGDELLNICMNAKHHKRVPSPEDKLYEECIPWKDNACCTLTTSWEAHLDVSPLYNFSLFHCGLLMPGCRKHFIQAICFYECSPNLGPWIQPVGSLGWEVAPSGQGERVVNVPLCQEDCEEWWEDCRMSYTCKSNWRGGWDWSQGKNRCPKGAQCLPFSHYFPTPADLCEKTWSNSFKASPERRNSGRCLQKWFEPAQGNPNVAVARLFASSAPSWELSYTIMVCSLFLPFLS

Variants of: B1
Details: with IZUMO1R

effect of a mutation on the interaction	Variant
decreasing interaction strength	E71A
decreasing interaction strength	E71K
decreasing interaction strength	H157A
decreasing interaction strength	R160A
decreasing interaction strength	R160E
disrupting interaction strength	W148A

Variants of: B2
Details: with IZUMO1, Q8IYV9-1

Variant	effect of a mutation on the interaction
E45A	decreasing interaction strength
E45K	decreasing interaction strength
K163A	decreasing interaction strength
K163E	decreasing interaction strength

The remaining lines, values ahead:

effect of a mutation on the interaction	Variant
disrupting interaction strength	L81A
decreasing interaction strength	W62A
